Earlier results in publication PMC4366142.

Target: muscle voltage-gated sodium channel (UniProt P15390)
UniProt P15390, sequence (P15390 whole entry): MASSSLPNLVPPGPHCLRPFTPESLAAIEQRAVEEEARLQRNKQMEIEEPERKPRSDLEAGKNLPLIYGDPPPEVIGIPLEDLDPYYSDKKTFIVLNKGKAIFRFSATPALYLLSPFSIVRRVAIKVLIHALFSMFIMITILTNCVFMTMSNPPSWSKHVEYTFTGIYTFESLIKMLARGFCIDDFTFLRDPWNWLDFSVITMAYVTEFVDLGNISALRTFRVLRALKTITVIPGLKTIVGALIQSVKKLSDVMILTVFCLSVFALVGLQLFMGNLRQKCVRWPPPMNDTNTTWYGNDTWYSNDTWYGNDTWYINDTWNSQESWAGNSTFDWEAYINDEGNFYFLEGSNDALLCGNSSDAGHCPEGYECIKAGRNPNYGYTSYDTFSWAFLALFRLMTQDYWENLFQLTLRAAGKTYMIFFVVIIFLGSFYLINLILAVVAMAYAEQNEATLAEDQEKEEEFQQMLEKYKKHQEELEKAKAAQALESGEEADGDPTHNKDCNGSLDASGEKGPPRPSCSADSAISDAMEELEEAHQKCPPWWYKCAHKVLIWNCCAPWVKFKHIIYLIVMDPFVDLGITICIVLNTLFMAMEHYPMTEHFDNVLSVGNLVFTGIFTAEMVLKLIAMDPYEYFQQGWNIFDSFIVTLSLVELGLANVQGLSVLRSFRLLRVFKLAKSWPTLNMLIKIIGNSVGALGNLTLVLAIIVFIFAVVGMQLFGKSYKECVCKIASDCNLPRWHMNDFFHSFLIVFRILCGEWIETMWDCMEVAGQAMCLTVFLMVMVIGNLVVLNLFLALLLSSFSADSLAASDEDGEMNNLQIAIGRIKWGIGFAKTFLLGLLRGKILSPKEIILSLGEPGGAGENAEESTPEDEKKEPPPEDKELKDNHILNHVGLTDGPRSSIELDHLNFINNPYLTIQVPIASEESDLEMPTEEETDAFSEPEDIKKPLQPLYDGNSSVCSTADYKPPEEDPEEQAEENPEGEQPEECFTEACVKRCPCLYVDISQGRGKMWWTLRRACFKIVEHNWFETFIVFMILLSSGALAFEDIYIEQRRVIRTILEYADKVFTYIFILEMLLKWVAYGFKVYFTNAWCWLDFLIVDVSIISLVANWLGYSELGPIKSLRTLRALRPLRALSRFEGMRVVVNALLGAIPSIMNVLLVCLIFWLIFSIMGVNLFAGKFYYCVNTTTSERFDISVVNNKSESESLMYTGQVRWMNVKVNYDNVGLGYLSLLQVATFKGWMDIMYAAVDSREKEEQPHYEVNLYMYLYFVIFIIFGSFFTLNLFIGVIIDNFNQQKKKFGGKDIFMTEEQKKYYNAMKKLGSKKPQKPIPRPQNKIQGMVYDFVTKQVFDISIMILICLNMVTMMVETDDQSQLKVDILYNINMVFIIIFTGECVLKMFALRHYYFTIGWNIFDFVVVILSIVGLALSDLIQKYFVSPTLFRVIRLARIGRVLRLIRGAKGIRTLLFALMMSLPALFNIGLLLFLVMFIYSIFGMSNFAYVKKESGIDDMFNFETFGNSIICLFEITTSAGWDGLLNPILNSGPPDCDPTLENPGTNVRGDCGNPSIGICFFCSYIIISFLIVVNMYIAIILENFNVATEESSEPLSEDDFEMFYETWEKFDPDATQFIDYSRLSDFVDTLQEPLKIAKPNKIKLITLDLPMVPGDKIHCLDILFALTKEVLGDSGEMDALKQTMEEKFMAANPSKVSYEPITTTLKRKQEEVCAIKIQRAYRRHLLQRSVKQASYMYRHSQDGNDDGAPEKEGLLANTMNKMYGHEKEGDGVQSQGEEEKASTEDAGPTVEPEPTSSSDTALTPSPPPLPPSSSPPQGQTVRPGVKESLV

Substance: μ-conotoxin GIIIA (from UniProt P01523)
- Kd: 25 nM
